Source: the domain aggregation screens of Martell et al. (2025)

Experiment: soluble fraction after stress (log2 fold change); higher = more stays soluble; pooled small domains, quantitative proteomics
Details: stress: 75 degC
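Further: 20 min heating vs room temperature control held 20 min.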

Q: With “HMDSRVRHAVLTTLLGKRIVDDLVEKGELPGTPLVLATAPGLDRDLEQLIAQRVVTALLTTV” as the sequence, how does the “soluble fraction (log2)” value read?
A: -0.0018

Q: Which “soluble fraction (log2)” value does the source give for “HMDSSALEPIVDQIIADNPKQVEQFQAGKTKVLGFFVGQVMKQTDGTANPKQVNELVAARLKSA” here?
A: 0.0418

Q: With “HMDSTDSIIHYVRAHRSLEVKNLSFAEARFKKVVELEPNFARGWLGLGEVSILKNNFENASIYLDKALE” as the sequence, how does the “soluble fraction (log2)” value read?
A: -0.282

Q: Which “soluble fraction (log2)” value does the source give for “HMDSTLTNEIYNELYRAITHQELKPGQNLTLTMLKKQFNVSHTPIREALTRLSADGLVTYHPNKGMKVT” here?
A: -0.444

Q: Which “soluble fraction (log2)” value does the source give for “HMDSTTHALALVRTLPRDQAEAVLLRVVADLDYADVAEIMGRSPGAVRVLVHRGLRRLEQELATRRT” here?
A: -0.574

Q: With “HMDSVEYRVITGDDVNFRKGPSTDYASLGKLNKGYKVEYISETNSWSKVKYNGQTGYVYSKYVAQT” as the sequence, how does the “soluble fraction (log2)” value read?
A: -0.155

Q: Which “soluble fraction (log2)” value does the source give for “HMDSVTVPDISGYSPKAAEDSINNAGLKINEQGLSGSGDGQVVERTSPSAGSKVKKGDSVTVYYSKA” here?
A: 0.0423

Q: With “HMDTDVFLMDLRGESRDYAEEVLINNNLEVKVIILPFSKRHYPGKVVEMRPSPFTKVKKGRIITLSVAGN” as the sequence, how does the “soluble fraction (log2)” value read?
A: -3.73

Q: For “HMDTDWDVSGVTPDQYRLLFSVLGGLAGVKDVGLNPDGLRIIHTPEALPSIEKAFQANGLKLKRNVD”, which “soluble fraction (log2)” value is on record?
A: -0.0943

Q: Which “soluble fraction (log2)” value does the source give for “HMDTETLIDKYQLNASEAAVLRFMDKNRDSLRDLGIRDVARASYVSTATIVNMAKKIGYSGYSELVFAYGS” here?
A: -3.69

Q: With “HMDTFSVAIGTKTPDGSSVGEVKTISRDELLLLEDEVAEDPTKEIIFTGGTKDSAQAALDGWIDYNTNLAS” as the sequence, how does the “soluble fraction (log2)” value read?
A: 0.0395

Q: Which “soluble fraction (log2)” value does the source give for “HMDTFYKNLSKKIKTIREKLSFSQEALAKELGISRVAISQIENGDRKISAEEIAKLSRVFNVPTDILLN” here?
A: -0.281

Q: With “HMDTHDVQVPQEGQGLRLDLFLTDHIEGSRSFIQTIIKDGHVILNGKKAKANSRLNEGDYVVWSIPKPE” as the sequence, how does the “soluble fraction (log2)” value read?
A: -0.288

Q: With “HMDTHRLNYSDFVAEVQAQRVSKVVIDGYTIVGQRTNGETFETVRPALQDPKLVDDLLQNNVIIEGKQPE” as the sequence, how does the “soluble fraction (log2)” value read?
A: -0.0116

Q: Which “soluble fraction (log2)” value does the source give for “HMDTIVHFLSDGRRITVRIKRNARKNIILRPMAADAVSATIPPWLGRRQLSAWLSEREDLLLSVLSRAA” here?
A: -3.34

Q: For “HMDTLESYVKRLEKLEGIADSFKGVSKAFALQAGREIRIMVESEKITDEEAVWLSKDIARRIENELEYPG”, which “soluble fraction (log2)” value is on record?
A: -0.331

Q: Which “soluble fraction (log2)” value does the source give for “HMDTNKMLIVNSISNGMKRLQELQDPQLAEIQKTFSGLDEQKATSAQLAQINNIINNRIAEIEG” here?
A: 0.23

Q: For “HMDTNPKVIITMDGVNVRSSASTGSDILFIAEKGEEYELISESGDFYKILYEGNKEGYVASWLVETSE”, which “soluble fraction (log2)” value is on record?
A: 0.239

Q: Which “soluble fraction (log2)” value does the source give for “HMDTNVKLLSPKQADFFASKLANNQNFSSKFAKVGEDMQPFIERISSELQQDISQVIVYMPYLLESGFKQ” here?
A: -0.328

Q: Which “soluble fraction (log2)” value does the source give for “HMDTNVPVPNVNGMTLNQAKAALEAAGFHVAVNWLGEKSDNNSVISYEPNGSAAKGTTITITVIAQPEQDG” here?
A: 0.0988

Q: With “HMDTPPGLSPEEQAIIDIITTRGDATINELTASIDIPTPRLMGMLVDMEFRSLIAAIPGGRYRI” as the sequence, how does the “soluble fraction (log2)” value read?
A: -1.82

Q: Which “soluble fraction (log2)” value does the source give for “HMDTRQFWEQWVADEIRTFEHKDRKQLFGWFEGNKPKLGQMKKLGYGDLLTKVQTSWDEIYQQKE” here?
A: 0.0857

Q: With “HMDTRSSARKALDAVNLLLETYGAKAYQHSYEIAGRRQQFQTPGDFMAFRSRLMAEVATEENAARINA” as the sequence, how does the “soluble fraction (log2)” value read?
A: -0.211

Q: Which “soluble fraction (log2)” value does the source give for “HMDTSKIDYSEFITMLDKGEVESVVLKSDTLTVTLKHGTGMAAQTKTVTLMEDLSELTKRLEKAGVKSFDK” here?
A: 0.614

Q: For “HMDTVIAEVTASILNLRRSAGTSSDIIGKLNKGEKVSIIGGSGNWKNVRTSGGITGWVYHEYLSTY”, which “soluble fraction (log2)” value is on record?
A: -1.46

Q: With “HMDTYDSIDSILEERHLSRRKLAQAIGLPPSTFQSMMSRKSGMTLEVLMKIVSYLQVSPDAFW” as the sequence, how does the “soluble fraction (log2)” value read?
A: -3.17

Q: Which “soluble fraction (log2)” value does the source give for “HMDVAWDAIKAKLKEVVDAEDKAHPLNDDQIVKALGESGITIARRTIAKYRDLLGIPPARKRKA” here?
A: -0.213

Q: Which “soluble fraction (log2)” value does the source give for “HMDVIGLEAAKSAAVKDAGISSPTFTKATLDRDDGRSLYEIEFISGSTKYEYDIDALTGSVLSKKTRALS” here?
A: 0.207

Q: Which “soluble fraction (log2)” value does the source give for “HMDVKPWERQEGESAKAFEAFTIYAGLGADRSLRAVAQQLGKSKTLMDRWSSTYSWVARAAEYDADLQRK” here?
A: -0.489

Q: With “HMDVLFGNRLRQLLDERNISQAHFADRIGVSRSRMNNYVAQRSEPDYATLIRIANTLDTSIDFLLGKS” as the sequence, how does the “soluble fraction (log2)” value read?
A: -2.36

Q: With “HMDVLIQEIGKRLRIQRLAMGLTQEELAKRAGISLSTLKLMEQQGKGSLQRLAKVAVVLDLDGDLRGLF” as the sequence, how does the “soluble fraction (log2)” value read?
A: -2.87

Q: For “HMDVLKVFSHNVRRYRTQLGLSQETVAFRTGLHRTYISAVERGKRSISLDNIQKIADALEVETYLLFI”, which “soluble fraction (log2)” value is on record?
A: -1.76

Q: For “HMDVLNPGDKAVTTASWLNFRTGPGMQNKVASVLARNTTVNIIEKSNEWYKVSLANGSTGYVHGMYLSKIT”, which “soluble fraction (log2)” value is on record?
A: -1.73

Q: For “HMDVLSQYGSRGEEVGKIQTRLKSWGYFSGEVTGYYGSQTTEAVKRFQQKHGLSATGVADRKTLELIGIS”, which “soluble fraction (log2)” value is on record?
A: -0.307

Q: For “HMDVLTARENEVLQLLAKGMSNKEIASVLVITEKTVKAHVSSILSKLNLSDRTQAALYAVKNGI”, which “soluble fraction (log2)” value is on record?
A: -0.763

Q: For “HMDVNMLVTGMLHKGEKSFVRVSFLRGKDWAEGIVPDAKIEKSQGFMEEEVARLEAYLLEQKSMIMEQA”, which “soluble fraction (log2)” value is on record?
A: -1.83

Q: Which “soluble fraction (log2)” value does the source give for “HMDVQGFVMDLDKPLDKEPIVEGFELKLEDSLTLVAAVNKDKSINSLFDELSKLGIKVKSMRNPP” here?
A: 0.0316

Q: Which “soluble fraction (log2)” value does the source give for “HMDVQNLTKKNQEFINIVTHQLLQSGKSDEDIQTILAKTLPEIIEKQKQGIPARSFLGAPTAWAAQFI” here?
A: -0.0596

Q: With “HMDVRLAKVYMLPANPYLRFIEFDDGTHGKFRAKPGKFGLGSVVKVKREDGDMYTLEGNYDGKDRL” as the sequence, how does the “soluble fraction (log2)” value read?
A: -0.763

Q: For “HMDVSPVRLIREARGLSQVEVAKAAGLSRAAYQNIEVGKTVPRASTMVNIARALGVSMDDLLAPV”, which “soluble fraction (log2)” value is on record?
A: -0.437

Q: With “HMDVSVPDVTGTRLDRAQSLLEAQGLTLGKVEEFFHATEPAGIVYDQEPRPGTRVDEGTAISVSVSKGPEA” as the sequence, how does the “soluble fraction (log2)” value read?
A: 0.323

Q: With “HMDWFDELKVSTDDSGRVTAPEESEFMFQTSNEKIFAGGDMVRGSDLVVTAIWEGRQAAEGIMDYLD” as the sequence, how does the “soluble fraction (log2)” value read?
A: -0.02

Q: With “HMDWPDDETIARIYALIKSDISSQARKVMELRFSEGMPFARIAAAMGISETAVYRHLSHALTVIRQKLN” as the sequence, how does the “soluble fraction (log2)” value read?
A: -2.14

Q: With “HMDWREMTAWMAELLKRRTGDDVETWNARVRESGAHDEASLRAWLTEQGVTGYAQTLLVMERFGYPDFF” as the sequence, how does the “soluble fraction (log2)” value read?
A: -2.89

Q: For “HMDYADISYKIFMNHIKNGQVERVELSGDPRIMGKLKDGTYFVTDNPRTENFKEFLLLNNVQVIETN”, which “soluble fraction (log2)” value is on record?
A: 0.738

Q: With “HMDYEVPEELQQKFEEFPRLKEAFYQLTPGRQHQYLYYFSQAKRSQTRYNRIDKYMNAILQGKGMK” as the sequence, how does the “soluble fraction (log2)” value read?
A: -1.67

Q: Which “soluble fraction (log2)” value does the source give for “HMDYINALTTAGITDAKVIVTAPFDVSGTAALTGIYKAYEDITGSSLNEIAKAVGVEELITTGNLA” here?
A: 0.23

Q: With “HMDYKAELDNIIRDHLDMEGPLLPVLHAVMARFSYIPKDAIPIIARKLNLSSAEVSGVISFYHDFKKEK” as the sequence, how does the “soluble fraction (log2)” value read?
A: -1.81

Q: Which “soluble fraction (log2)” value does the source give for “HMDYKYYIVKEPMVVKNLELPVGTRIVYFNTSLFGDSESSRPLKEKNIYQIFFPDDKPLIWGGVPVSLIER” here?
A: -2.24

Q: With “HMDYNLTKNQKIVFNLLQNSGEPLKAYTILESLKREGLKSPLQVYRALDKLVELGIIHKIESQNSFI” as the sequence, how does the “soluble fraction (log2)” value read?
A: -0.334

Q: Which “soluble fraction (log2)” value does the source give for “HMDYNMEEWSLTADQLKSGDTILILNLGKTATLLESTRGKKNVRVRMGNIKTIVETSSIRGNPHQ” here?
A: -1.77

Q: Which “soluble fraction (log2)” value does the source give for “HMDYPFQYFNYSHLRILGVPAQLIKAVRKAPTLDAIEQLSGLSEKTKLWLLELATEPKLEDVLFDPGR” here?
A: -1.98

Q: For “HMDYRSMSGLQKAALLIMSVGEETAAKLFQLMHDDEIREISQTMANLGTVNATVIERLFVEFADAISS”, which “soluble fraction (log2)” value is on record?
A: -1.1

Q: Which “soluble fraction (log2)” value does the source give for “HMDYVKTLGETINVRVAASTDADIYKLLPGGEILNRVGYNEEWTKVMVDGSTFYVYSEYVIQTEPPA” here?
A: -1.32

Q: With “HMDYYSILGVDRNATGEDIKKAFKKKAMKYHPDRNPDNKESERKFKEAKEAYDTLSNPQKKSMYDQFGT” as the sequence, how does the “soluble fraction (log2)” value read?
A: 0.149
